Where a chain is given by its changes, count along the chain named.

The assay has as its target cynoNotch3 monomer (cyno). Nature of the assay: binding to cynoNotch3 monomer at 25° C., protocol similar to that for hNotch3 (method not named).

B1: 28042.1 antibody (antibody, human IgG1, kappa, V domains shown)
VH: EVQLLESGGGLVQPGGSLRLSCAASGFTFSDYMMSWVRQAPGKGLEWVSWIRSSGGTTLYADSVKGRFTISRDNSKNTLYLQMNSLRAEDTATYYCARVGGGTTGYAFDIWGQGTMVTVSS
VL: DIQMTQSPSSLSASVGDRVTITCRASQSISSYLNWYQQKPGKAPKLLIYGASSLQSGVPSRVSGTGSGTDFTLTISSLQPEDFATYYCQQSYSPSFTFGPGTKVDFER
One may read the Kd as the constant that tells how readily two partners part at equilibrium. Low values mean higher affinity, high ones lower affinity. Turning to B1, the Kd came out at 5.35 nM.

B2: 28042.2 antibody (antibody, human IgG1, kappa, V domains shown)
VH: B1 VH
VL: B1 VL with S31N, G50A
B2 gave a Kd of 214 nM.
